Test results reported in patent US20100260805A1 (CIRCASSIA, published 2010).

What was measured:
Assay in all cases: competitive MHC class II binding assay
DQA1*0102/DQB1*0602 = target: T1, DQA1*0102/DQB1*0602 (human, UniProt P01920 33-230, limits assumed)
T1 construct: human MHC class II allotype
T1 MHC II alpha: not shown
T1 MHC II beta: not shown

HLA-DRB1*1501 = target: T2, HLA-DRB1*1501 (human)
T2 construct: human MHC class II allotype

HLA-DRB1*0301 = target: T3, HLA-DRB1*0301 (human)
T3 construct: human MHC class II allotype

HLA-DRB1*0401 = target: T4, HLA-DRB1*0401 (human)
T4 construct: human MHC class II allotype

HLA-DRB1*0701 = target: T5, HLA-DRB1*0701 (human)
T5 construct: human MHC class II allotype

HLA-DRB1*1301 = target: T6, HLA-DRB1*1301 (human)
T6 construct: human MHC class II allotype

HLA-DRB1*1101 = target: T7, HLA-DRB1*1101 (human)
T7 construct: human MHC class II allotype

HLA-DRB1*0101 = target: T8, HLA-DRB1*0101 (human)
T8 construct: human MHC class II allotype

Measured: binding result

ETFDPMKVPDHSD [HDM29]
no binding: DQA1*0102/DQB1*0602 | HLA-DRB1*1501 | HLA-DRB1*0301 | HLA-DRB1*0401 | HLA-DRB1*0701 | HLA-DRB1*1301 | HLA-DRB1*1101 | HLA-DRB1*0101

KAVDEAVAAIEKS [HDM28]
no binding: DQA1*0102/DQB1*0602 | HLA-DRB1*1501 | HLA-DRB1*0301 | HLA-DRB1*0401 | HLA-DRB1*0701 | HLA-DRB1*1301 | HLA-DRB1*1101 | HLA-DRB1*0101

NSVNVPSELDLRSLRT [HDM17]
no binding: DQA1*0102/DQB1*0602 | HLA-DRB1*1501 | HLA-DRB1*0301 | HLA-DRB1*0401 | HLA-DRB1*0701 | HLA-DRB1*1301 | HLA-DRB1*1101 | HLA-DRB1*0101

IDLKGELDMRNIQVR [HDM32A]
no binding: DQA1*0102/DQB1*0602 | HLA-DRB1*1501 | HLA-DRB1*0301 | HLA-DRB1*0401 | HLA-DRB1*0701 | HLA-DRB1*1301 | HLA-DRB1*1101 | HLA-DRB1*0101

KVLAPAFKKELER [HDM50]
no binding: DQA1*0102/DQB1*0602 | HLA-DRB1*1501 | HLA-DRB1*0301 | HLA-DRB1*0401 | HLA-DRB1*0701 | HLA-DRB1*1301 | HLA-DRB1*1101 | HLA-DRB1*0101

EYIQHNGVVQESY [HDM05]
no binding: DQA1*0102/DQB1*0602 | HLA-DRB1*1501 | HLA-DRB1*0301 | HLA-DRB1*0401 | HLA-DRB1*0701 | HLA-DRB1*1301 | HLA-DRB1*1101 | HLA-DRB1*0101

HIGIIDLKGELDMRN [HDM31A]
no binding: DQA1*0102/DQB1*0602 | HLA-DRB1*1501 | HLA-DRB1*0301 | HLA-DRB1*0401 | HLA-DRB1*0701 | HLA-DRB1*1301 | HLA-DRB1*1101 | HLA-DRB1*0101

RNSWDTNWGDNGYG [HDM16A]
no binding: DQA1*0102/DQB1*0602 | HLA-DRB1*1501 | HLA-DRB1*0301 | HLA-DRB1*0401 | HLA-DRB1*0701 | HLA-DRB1*1301 | HLA-DRB1*1101 | HLA-DRB1*0101

KRVGDANVKSEDG [HDM36]
no binding: DQA1*0102/DQB1*0602 | HLA-DRB1*1501 | HLA-DRB1*0301 | HLA-DRB1*0401 | HLA-DRB1*0701 | HLA-DRB1*1301 | HLA-DRB1*1101 | HLA-DRB1*0101

KSETFDPMKVPDHSD [HDM29B]
no binding: DQA1*0102/DQB1*0602 | HLA-DRB1*1501 | HLA-DRB1*0301 | HLA-DRB1*0401 | HLA-DRB1*0701 | HLA-DRB1*1301 | HLA-DRB1*1101 | HLA-DRB1*0101

PNVNKIREALAQT [HDM07]
no binding: DQA1*0102/DQB1*0602 | HLA-DRB1*1501 | HLA-DRB1*0301 | HLA-DRB1*0401 | HLA-DRB1*0701 | HLA-DRB1*1301 | HLA-DRB1*1101 | HLA-DRB1*0101

RTIIQRDNGYQPNY (solubility test: NO) [HDM13]
no binding: DQA1*0102/DQB1*0602 | HLA-DRB1*1501 | HLA-DRB1*0301 | HLA-DRB1*0401 | HLA-DRB1*0701 | HLA-DRB1*1301 | HLA-DRB1*1101 | HLA-DRB1*0101

IGIKDLDAFRHYD [HDM11]
no binding: DQA1*0102/DQB1*0602 | HLA-DRB1*1501 | HLA-DRB1*0301 | HLA-DRB1*0401 | HLA-DRB1*0701 | HLA-DRB1*1301 | HLA-DRB1*1101 | HLA-DRB1*0101

NKIREALAQTHSA [HDM08]
no binding: DQA1*0102/DQB1*0602 | HLA-DRB1*1501 | HLA-DRB1*0301 | HLA-DRB1*0401 | HLA-DRB1*0701 | HLA-DRB1*1301 | HLA-DRB1*1101 | HLA-DRB1*0101

IGIIDLKGELDMRN [HDM31]
no binding: DQA1*0102/DQB1*0602 | HLA-DRB1*1501 | HLA-DRB1*0301 | HLA-DRB1*0401 | HLA-DRB1*0701 | HLA-DRB1*1301 | HLA-DRB1*1101 | HLA-DRB1*0101

ANVKSEDGVVKAH [HDM37]
no binding: DQA1*0102/DQB1*0602 | HLA-DRB1*1501 | HLA-DRB1*0301 | HLA-DRB1*0401 | HLA-DRB1*0701 | HLA-DRB1*1301 | HLA-DRB1*1101 | HLA-DRB1*0101

AKIEIKASLDGLE [HDM27]
no binding: DQA1*0102/DQB1*0602 | HLA-DRB1*1501 | HLA-DRB1*0301 | HLA-DRB1*0401 | HLA-DRB1*0701 | HLA-DRB1*1301 | HLA-DRB1*1101 | HLA-DRB1*0101

KDLDAFRHYDGRT [HDM12]
no binding: DQA1*0102/DQB1*0602 | HLA-DRB1*1501 | HLA-DRB1*0301 | HLA-DRB1*0401 | HLA-DRB1*0701 | HLA-DRB1*1301 | HLA-DRB1*1101 | HLA-DRB1*0101
